{"source": "paper PMC8427598", "about": "“Identification and Characterization of an Antennae-Specific Glutathione S-Transferase From the Indian Meal Moth” (Frontiers in Physiology, 2021)", "tested_on": "O=[N+]([O-])c1ccc(Cl)c([N+](=O)[O-])c1", "experiment": "purified protein", "details": "50 mM GSH, acetate-phosphate buffer pH 7.5 (b1, b25; b45 prints optimum pH 7.0), 35 °C"}
{"substance": "PiGSTd1 (Plodia interpunctella)", "values": [{"measurement": "Km", "value": "229.2 ± 18.05", "unit": "µM"}]}
